Assay results reported in paper PMC4227782.

Target: T1, MBNL1 (2-260) (UniProt Q9NR56)
T1 sequence: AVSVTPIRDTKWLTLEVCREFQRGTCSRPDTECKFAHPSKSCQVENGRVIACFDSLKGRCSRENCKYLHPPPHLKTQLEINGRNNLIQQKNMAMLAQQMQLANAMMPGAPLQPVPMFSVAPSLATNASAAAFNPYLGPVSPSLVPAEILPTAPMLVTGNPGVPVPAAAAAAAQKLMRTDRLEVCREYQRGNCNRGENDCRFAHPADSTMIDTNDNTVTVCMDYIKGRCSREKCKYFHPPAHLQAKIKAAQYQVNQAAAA
Test: EMSA
Details: 5 mM Mg2+, 0.1 mg/ml heparin, 175 mM NaCl, 20 mM Tris pH 7.5, 1 mM BME, 10% glycerol, 5 mM MgCl2, 0.1 mg/ml heparin, 2 mg/ml BSA, 0.02% xylene cyanol, 0.05% bromophenol blue, 20 min at room …

CUGCUGCUGCUG [1-2'Ome(CUG)4]
Kd (1 2'-O-methyl, position only in Fig 1B): 0.65 µM

CUGCUGCUGCUG [1Ψ(CUG)4]
Kd (1 pseudouridine replacing U, position only in Fig 1B): 1 µM

CUGCUGCUGCUG [2-2'Ome(CUG)4]
Kd (2 2'-O-methyl, positions only in Fig 1B): 0.89 µM

CUGCUGCUGCUG [2Ψ(CUG)4]
Kd (2 pseudouridines replacing U, positions only in Fig 1B): 6 µM

CUGCUGCUGCUG [4-2'Ome(CUG)4]
Kd (4 2'-O-methyl, positions only in Fig 1B): 1 µM

CUGCUGCUGCUG [4Ψ(CUG)4]
Kd (Kd immeasurable, 4 pseudouridines replacing U): > 5 µM

CUGCUGCUGCUG [(CUG)4]
Kd: 0.3 µM
